# Data taken from paper PMC6652776.
# What was measured:
# [1] = target: protein E (PE), recombinant, isolated (nontypeable Haemophilus influenzae strain 772); assay: AUC; sedimentation velocity, 25,000 rpm, AN-60Ti rotor, 15°C, absorbance at 280 nm, c(S) model in Sedfit
# [2] = target: PE-PilA fusion protein (version used in solution and ELISA experiments) (nontypeable Haemophilus influenzae strain 772 | nontypeable Haemophilus influenzae strain 86-028NP); assay: as above
Substance,stoichiometry N [1],stoichiometry N [2]
"protein E (PE), recombinant, isolated (domain or fragment)",2,–
PE-PilA fusion protein (version used in solution and ELISA experiments),–,2
